Assay results: patent US20150284437A1 (Harvard, published 2015)
Non-standard residues stand in square brackets, D forms with d. No end group written: not given here. βAla = NCCC(=O)O

T1: N-terminally GST-tagged human β-catenin (human, UniProt P35222 1-781, limits assumed)
T1 construct: not shown: N-terminal GST tag
T1 sequence (looked up): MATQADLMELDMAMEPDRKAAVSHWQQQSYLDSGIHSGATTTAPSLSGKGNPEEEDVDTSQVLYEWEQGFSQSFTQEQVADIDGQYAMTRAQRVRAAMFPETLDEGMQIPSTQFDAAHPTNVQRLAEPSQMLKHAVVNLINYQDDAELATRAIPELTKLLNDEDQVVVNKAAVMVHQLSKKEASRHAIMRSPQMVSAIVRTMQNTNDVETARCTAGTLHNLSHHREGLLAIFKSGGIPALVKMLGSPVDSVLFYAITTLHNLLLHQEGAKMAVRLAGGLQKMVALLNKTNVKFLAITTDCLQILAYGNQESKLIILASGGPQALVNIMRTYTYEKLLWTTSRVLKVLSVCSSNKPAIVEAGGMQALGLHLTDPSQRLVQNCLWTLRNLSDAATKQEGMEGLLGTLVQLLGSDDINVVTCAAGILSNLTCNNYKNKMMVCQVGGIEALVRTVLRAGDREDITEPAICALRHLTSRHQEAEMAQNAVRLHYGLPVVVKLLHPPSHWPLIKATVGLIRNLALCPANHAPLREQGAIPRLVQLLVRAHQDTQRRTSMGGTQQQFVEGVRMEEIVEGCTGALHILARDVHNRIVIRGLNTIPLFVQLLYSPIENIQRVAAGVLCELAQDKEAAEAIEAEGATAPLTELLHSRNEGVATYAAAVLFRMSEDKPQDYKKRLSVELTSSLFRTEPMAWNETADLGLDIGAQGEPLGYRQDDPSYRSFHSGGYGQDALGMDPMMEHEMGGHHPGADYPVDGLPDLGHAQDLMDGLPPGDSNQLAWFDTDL


Target: T1, N-terminally GST-tagged human β-catenin
Test: fluorescence polarization; FITC-labeled peptide, GST-tagged human β-catenin
Experimental: Peptide sequences derived from TCF4 and Axin were synthesized and fluorescently labeled (FIG. 4b) and the affinity of both binding domains to β-catenin was assessed. The sequence of TCF4 was modified in such a way that the loop (9 amino acids; not visible in the crystal structure) between the extended region and the α-helix was replaced by two β-alanines (βAla). Labeled peptides and GST-tagged human β-catenin were used in a fluorescence polarization assay enabling the determination of the stability of these peptide/β-catenin complexes (FIG. 4c). […] Therefore, the Axin derivative was considered to be the most promising candidate for the hydrocarbon stapling approach.

Row | Kd | Binder
1 | ~5000 nM | ENPESILDEHVQRVM (also: FITC label, site not given here, also called axin-WT; Axin derived peptide) [Axin wild type sequence peptide ax-WT, fluorescently labeled]
2 | 300 nM | DELISFKDEGEQE[βAla][βAla]ERDLADVKSSLVN (peptide, UniProt Q9NQB0 10-53, looked up, also: FITC label, place not given here, A synthetic fragment, not the whole protein) [TCF4 derived peptide, fluorescently labeled]
